Data as given in the supplement of paper PMC10126150.
± gives the standard deviation of the averaged measurements.

Each sequence was assayed on ATP (assay: switch fluorescence ratio, 500 uM ATP over buffer (Cy3 cluster intensity, sum of 5 cycles each) (fold (ratio)); higher = stronger signal-on switching upon ATP binding; sequences stand for … in TCGTCGGCAGCGTCAGATGTGTATAAGAGACAGTTTTTTTTTTTTTTTTTTTTTTTTT…TC). Details: aptamer strand: ATP DNA aptamer (quencher-CACCTGGGGGAGTATTGCGGAGGAAGG + anchor), 100 nM annealed; ATP concentration: 500 uM.
Outline: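 Switching-strand clusters labelled with Cy3 on a modified Illumina MiSeq flow-cell were annealed to 100 nM quencher-labelled ATP aptamer, imaged in selection buffer, and re-imaged after 15 min with 500 uM ATP at 22 °C. This was done over five cycles with NaOH stripping and re-annealing in between. The fluorescence ratio is summed target-cycle over summed buffer-cycle Cy3 intensity per cluster, averaged per switch-domain sequence, excluding clusters outside 100-1000 RFU.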
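Note: ATP exposure 15 min at 22 °C before imaging.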

Sequence | switch fluorescence ratio
TATACGGTTT | 1.03 ± 0.083
TATACTCAGG | 1.05 ± 0.029
TATAGACTTT | 1.02 ± 0.019
TATAGATGAC | 0.989 ± 0.017
TATAGATGTG | 1.013 ± 0.0024
TATAGATTTT | 1.003 ± 0.0078
TATAGCAGTT | 1.01 ± 0.013
TATAGCTTTT | 0.9869 ± 0.0031
TATAGGCTCA | 0.976 ± 0.033
TATAGGCTTT | 0.97 ± 0.024
TATAGGGCC | 1 ± 0.017
TATAGGTATG | 1.01 ± 0.012
TATAGGTCGA | 1.03 ± 0.011
TATAGGTGAG | 1.01 ± 0.03
TATAGTATTT | 0.984 ± 0.015
TATAGTGCTC | 0.986 ± 0.054
TATAGTGTAA | 1.01 ± 0.048
TATAGTTGTG | 0.965 ± 0.025
TATATAAGAA | 1.01 ± 0.033
TATATATCAA | 1.003 ± 0.005
TATATCGGAC | 1 ± 0.014
TATATCTCCG | 1.12 ± 0.015
TATATGAGTT | 0.963 ± 0.0099
TATATGGCAT | 1.05 ± 0.085
TATATGGCGG | 0.9719 ± 0.0074

Sequence | switch fluorescence ratio
TATATGGGGT | 1 ± 0.042
TATATGTGAT | 0.987 ± 0.017
TATATGTGGG | 0.9705 ± 0.0077
TATATTTCTA | 0.999 ± 0.035
TATATTTTCA | 1.01 ± 0.068
TATCAACTTG | 1.02 ± 0.037
TATCACATTG | 0.992 ± 0.039
TATCAGGTAG | 1.001 ± 0.0052
TATCATATTA | 1 ± 0.037
TATCATGCGC | 1.02 ± 0.054
TATCATGGGA | 0.9982 ± 0.0087
TATCATGGTG | 1.05 ± 0.058
TATCCAGGGA | 1.026 ± 0.0046
TATCCCAGGC | 1.31 ± 0.032
TATCCTTTTT | 1.03 ± 0.057
TATCGAGGGT | 0.9698 ± 0.0094
TATCGAGTCG | 0.997 ± 0.034
TATCGCCCTC | 1.07 ± 0.011
TATCGGAGAG | 0.9835 ± 0.0016
TATCGGCTGT | 1.01 ± 0.011
TATCGGGGTA | 1.002 ± 0.0047
TATCGGTAGC | 1.017 ± 0.0025
TATCGTAGAG | 1.011 ± 0.0072
TATCGTGGAG | 1.04 ± 0.042
TATCGTTTTT | 0.987 ± 0.046

Sequence | switch fluorescence ratio
TATCTAGGTC | 0.954 ± 0.086
TATCTGGGCA | 1.06 ± 0.087
TATCTGGTAG | 1 ± 0.025
TATCTTACGA | 1.02 ± 0.041
TATCTTTCGG | 0.997 ± 0.021
TATGAAAAGT | 0.9926 ± 0.0072
TATGAACTGC | 1.04 ± 0.041
TATGAGAAGC | 1 ± 0.017
TATGAGCGCT | 1.03 ± 0.054
TATGAGGCCA | 1.04 ± 0.023
TATGAGGGGG | 1.02 ± 0.04
TATGAGGGTG | 1.08 ± 0.13
TATGAGGGTT | 1 ± 0.038
TATGAGTTGC | 1.03 ± 0.011
TATGATAACT | 1.031 ± 0.0077
TATGATCTAG | 0.995 ± 0.014
TATGATGTAA | 1.02 ± 0.049
TATGATTCAG | 0.98 ± 0.012
TATGATTTAT | 0.995 ± 0.062
TATGCAATCA | 1.03 ± 0.02
TATGCATGGA | 1.009 ± 0.0082
TATGCCCAGA | 1.03 ± 0.041
TATGCCTCTT | 1.01 ± 0.031
TATGCGCAGA | 1.01 ± 0.03
TATGCTGGAT | 1.02 ± 0.059

Sequence | switch fluorescence ratio
TATGGAGATA | 0.999 ± 0.013
TATGGAGGTT | 0.969 ± 0.0074
TATGGCATCG | 0.99 ± 0.014
TATGGCTCTA | 0.9731 ± 0.00019
TATGGGACTC | 1.032 ± 0.0025
TATGGGCCGG | 1.07 ± 0.018
TATGGGGGGC | 0.983 ± 0.047
TATGGGGGTA | 1.01 ± 0.029
TATGGGGGTC | 1.02 ± 0.015
TATGGTAGC | 0.989 ± 0.048
TATGGTCTTA | 0.987 ± 0.021
TATGGTCTTT | 0.979 ± 0.019
TATGGTGAAG | 1 ± 0.024
TATGGTGCCT | 1.02 ± 0.082
TATGGTGGGG | 0.986 ± 0.034
TATGGTGTAG | 1 ± 0.043
TATGGTTATG | 1.008 ± 0.0072
TATGTACTAT | 1.08 ± 0.029
TATGTAGAAG | 1 ± 0.027
TATGTAGACG | 1.04 ± 0.064
TATGTAGGAG | 0.994 ± 0.018
TATGTCATAC | 1.14 ± 0.058
TATGTCTCTC | 0.97458 ± 0.00069
TATGTGAGGC | 0.993 ± 0.011
TATGTGGCAC | 1.08 ± 0.061
